# Assay results from patent US8076087B2, “Galectin sequences and compositions and methods utilizing same for treating or diagnosing arthritis and other chronic inflammatory diseases” (Medical Research Fund of Tel Aviv Souraskv Medical Center, priority 2002, dated 2011).
# B1: galectin-8 variant 1: recombinant galectin-8 variant 1 polypeptide, SEQ ID NO: 6, isoform found in synovial fluid cells of arthritic patients (protein)
# chain: MMLSLNNLQNIIYNPDLQSTQASSLELTEISRENVPKSGTPQLPSNRGGDISKIAPRTVYTKSKEARQSHFDLHENTTYELCVKSLPFAARLNTPMGPGRTVVVKGEVNANAKSFNVDLLAGKSKDIALHLNPRLNIKAFVRNSFLQESWGEEERNITSFPFSPGMYFEMIIYCDVREFKVAVNGVHSLEYKHRFKELSSIDTLEINGDIHLLEVRSW
# Key:
# IL-1β = IL-1β levels in media of LPS-supplemented human synovial tissue / cell cultures, sandwich enzyme immunoassay; assay type: cell-based; conditions: LPS 3 μg/ml, 50-2000 ng/ml, 48 hours
# Experimental: (§1) Specimen Selection and Culture Conditions: Synovial tissues were obtained from patients undergoing total knee or hip replacement for osteoarthritis (OA). Within 2 hours of removal, synovial tissues were cut into small pieces, of a few millimeters in diameter. Synovial fibroblasts were cultured in 2 ml RPMI 1640 supplemented with 2 mM L-glutamine, 100 U/ml penicillin and 100 μg/ml streptomycin sulphate (Biological Industries).
# (§2) Inflammatory cells and PBLs derived from joints of rheumatoid arthritic (RA) patients were cultured individually [RPMI-1640 (Sigma, Israel)]. The murine fibroblast line, NIH 3T3, was used as a control. The recombinant galectin-8 peptide (r-galectin-8) was added to the culture medium of the synovial fibroblasts at a concentration of 0.125 μM, 0.25 μM, 0.5 μM and 1 μM) together with lipopolysaccharide (LPS, 3 μg/ml). The recombinant galectin-8 peptide variants (r-galectin-8 variant 1 and r-galectin-8 variant 2) were added to all the culture mediums in the following concentrations: 50 ng/ml, 125 ng/ml, 250 ng/ml, 500 ng/ml, 750 ng/ml, 1 μg/ml and 2 μg/ml together with lipopolysaccharide (LPS, 3 μg/ml). Following 48 hours of incubation (37° C., 5% CO2), the measurement of IL-1β, TNF-α and IL-1ra production was performed in supernatants by quantitative sandwich enzyme immunoassay technique (R&D Systems, Inc., USA). Detection limits were 1 pg/ml to 14 pg/ml. IL-1ra production was tested with and without the addition of lipopolysaccharide (LPS, 3 μg/ml) to the culture media.
# IL-1ra [1] = assay: IL-1ra levels in media of LPS-supplemented human synovial tissue / cell cultures, sandwich enzyme immunoassay; assay type: cell-based; conditions: LPS 3 μg/ml, 50-2000 ng/ml, 48 hours
# Experimental: as §1, §2
# IL-1ra [2] = assay: IL-1ra levels in media of NIH 3T3 fibroblasts (negative control cells); assay type: cell-based, murine; conditions: LPS 3 μg/ml, 50-2000 ng/ml, 48 hours
# Experimental: as §2
# [3] = tested on: synovial fluid cells from RA patients; assay: Apoptosis induction, annexin V/PI flow cytometry, synovial fluid cells; assay type: cell-based, human; conditions: inflammatory cells from joints of arthritic patients, lowest concentration 50 ng/ml
# Experimental: (§3) The assay was performed by Phosphatidyl Serine Detection Kit (IOP-116F FITC-conjugated, IQ Products, The Netherlands) using the manufacturer instructions. Human fibroblast cells from OA patients, synovial fluid cells and PBLs from RA and other arthritic patients were incubated with increasing concentrations of galectin-8 variants 1 and 2 (50-2000 ng/ml). Specific binding of annexin V was performed by the incubation of cells for 20 minutes on ice in a binding calcium buffer containing a saturating concentration of annexin V-fluorescein isothiocyanate (FITC) and propdium iodide (PI). After incubation, the cells were pelleted, and analyzed in FACS analyzer (Beckton Dickinson, San Jose, Calif.). Annexin V^+/PI^+ cells were defined as necrotic, while annexin V^+/PI^− cells were defined as apoptotic. The percent of the apoptotic cells of the total cells was determined.
# [4] = tested on: PBLs of arthritic patients; assay: Apoptosis induction, annexin V/PI flow cytometry, PBLs; assay type: cell-based, human; conditions: lowest concentration 50 ng/ml
# Experimental: as §3
# [5] = human fibroblasts from OA patients
# [6] = human fibroblasts from OA patients, listed as galectin-8 var. 1
# [7] = synovial fluid cells (SFCs), listed as galectin-8 var. 1
molecule,measurement,setting,value
B1,IL-1β levels in media,IL-1β; PBLs from RA patients,significantly and dose-dependently inhibited
same,IL-1β levels in media,"IL-1β; PBLs from RA patients, listed as galectin-8 var. 1",decrease
same,IL-1β levels in media,IL-1β; [5],significantly and dose-dependently inhibited
same,IL-1β levels in media,IL-1β; [6],decrease
same,IL-1β levels in media,IL-1β; synovial fluid cells (SFCs),significantly and dose-dependently inhibited
same,IL-1β levels in media,IL-1β; [7],decrease
same,IL-1ra levels in media,IL-1ra [1]; PBLs of RA patients,significantly and dose-dependently increased
same,IL-1ra levels in media,"IL-1ra [1]; PBLs of RA patients, listed as galectin-8 var. 1",decrease
same,IL-1ra levels in media,IL-1ra [1]; [5],significantly and dose-dependently increased
same,IL-1ra levels in media,IL-1ra [1]; [6],decrease
same,IL-1ra levels in media,IL-1ra [1]; synovial fluid cells (SFCs),significantly and dose-dependently increased
same,IL-1ra levels in media,IL-1ra [1]; [7],decrease
same,IL-1ra levels in media,IL-1ra [2],No effect
same,IL-1ra levels in media,IL-1ra [2]; listed as galectin-8 var. 1,remain unaffected
same,maximal apoptotic effect,[3],approximately 100%
same,maximal apoptotic effect,[4],approximately 100%
